Source: patent publication US5849493

Molecular target: STF-1 / Pbx complex C2 of Tu-6 nuclear extract (UniProt P52947+P40424)
Experiment: EMSA
Settings: off-rate with 1000-fold unlabeled TSEII, room temperature; C2 supershift/block by STF-1 and Pbx antisera

STF-1 / Pbx complex C2 of Tu-6 nuclear extract, sequence (P52947 whole entry, chain 1 of 2): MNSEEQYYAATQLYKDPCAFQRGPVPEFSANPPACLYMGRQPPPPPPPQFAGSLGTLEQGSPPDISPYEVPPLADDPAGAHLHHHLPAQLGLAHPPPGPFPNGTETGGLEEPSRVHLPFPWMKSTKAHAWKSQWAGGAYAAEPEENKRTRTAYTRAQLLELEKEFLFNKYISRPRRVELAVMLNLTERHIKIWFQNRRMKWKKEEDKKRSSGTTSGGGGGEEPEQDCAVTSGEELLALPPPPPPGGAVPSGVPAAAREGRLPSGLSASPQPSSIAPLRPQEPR
STF-1 / Pbx complex C2 of Tu-6 nuclear extract, sequence (P40424 whole entry, chain 2 of 2): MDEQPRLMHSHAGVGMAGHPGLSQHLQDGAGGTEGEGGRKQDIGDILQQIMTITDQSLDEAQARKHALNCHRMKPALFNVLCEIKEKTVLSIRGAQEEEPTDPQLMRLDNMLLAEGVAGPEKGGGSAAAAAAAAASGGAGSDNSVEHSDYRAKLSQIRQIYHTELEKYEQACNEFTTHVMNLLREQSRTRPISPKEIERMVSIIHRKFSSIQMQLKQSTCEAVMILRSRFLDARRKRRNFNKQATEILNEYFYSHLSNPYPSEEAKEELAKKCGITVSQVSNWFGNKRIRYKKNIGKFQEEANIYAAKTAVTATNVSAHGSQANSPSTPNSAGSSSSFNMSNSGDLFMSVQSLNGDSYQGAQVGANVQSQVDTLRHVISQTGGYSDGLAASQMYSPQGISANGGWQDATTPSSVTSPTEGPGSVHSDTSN

## GATCTCAGTAATTAATCATGCA / AGTCATTAATTAGTACGTCATG [somatostatin TSEII]
  koff (min (half-life)): 15
